In assay [1] the target is T1, HER2/ERBB2 receptor tyrosine kinase (human, UniProt P04626 23-1255).
T1 construct: whole, on cells; Endogenous HER2 in cell lysates, detected by anti-HER2 immunoblot of precipitates or GST adsorbates; also called Neu; CD340
Nature of the assay: co-immunoprecipitation: anti-MUC1-C precipitates of SKBR3 and BT474 lysates, immunoblot (FIG. 1B). An excerpt:
(FIG. 1C). […] Lysates were immunoblotted with the indicated antibodies. […] IP, immunoprecipitated.
For orientation: A western blot detects proteins with antibodies after separation by electrophoresis.

Assay [2] has as its target T1, HER2/ERBB2 receptor tyrosine kinase. Nature of the assay: GST pull-down from SKBR3 cell lysates, anti-HER2 immunoblot (FIG. 2A, left). The method, then:
Lysates from SKBR3 (left) and BT474 (right) cells were incubated with the indicated GST or GST-fusion proteins. The adsorbates were immunoblotted (IB) with anti-HER2. Input of the GST proteins was assessed by Coomassie blue staining. […] Lysates were immunoblotted with the indicated antibodies. […] Lysates were immunoblotted with the indicated antibodies. […] Cell number (mean±s.e. of three determinations) was determined by Trypan blue staining. IP, immunoprecipitated.

B1: MUC1 C-terminal subunit (MUC1-C) (other)
chain: GSVVVQLTLAFREGTINVHDVETQFNQYKTEAASRYNLTISDVSVSDVPFPFSAQSGAGVPGWGIALLVLVCVLVALAIVYLIALAVCQCRRKNYGQLDIFPARDTYHPMSEYPTYHTHGRYVPPSSTDRSPYEKVSAGNGGSSLSYTNPAVAATSANL
notes: Endogenous MUC1-C in lysates of SKBR3, BT474, SKBR3R and BT474R human breast cancer cells, precipitated with anti-MUC1-C
Regarding B1, the binding result in assay [1] is recorded as “binds”.

B2: GST-MUC1-CD in which the CQC motif had been mutated to AQA (other, not shown: a dimerising Fc or GST; large carriers; small tags and cut ends)
chain: AQARRKNYGQLDIFPARDTYHPMSEYPTYHTHGRYVPPSSTDRSPYEKVSAGNGGSSLSYTNPAVAATSANL
notes: also called MUC1-CD(AQA)
Consider B2, for which the binding result in assay [2] is “no binding”.

(Values after patent US20160074468A1 (GENUS ONCOLOGY, published 2016).)
